Here are results for four molecules from patent publication US12605469B2, “Tumor specific antibody conjugates and uses therefor” (The University of North Carolina at Charlotte, priority 2019, dated 2026).

One data set deals with KCM tumor cells. Briefly: NK cell specific lysis of tumor cells. As to conditions: various E:T ratios. In kind it is cell-based, mouse. From the text:
FIGS. 4A and 4B are graphs showing that an exemplary antibody of the presently disclosed subject matter (TAB-004) enhanced the cytotoxicity of Natural Killer (NK) cells to kill target tumor cells.
(§1) The TAB-004 antibody alone or conjugated to CpG ODN bound to a tumor cell line (referred to herein as the “KCM” cell line; see FIG. 3) generated from the triple transgenic PDA.MUC1.Tg mice.

A further data set concerns KCM pancreatic cell line. Briefly: binding to KCM pancreatic cell line. In kind it is cell-based, mouse.
Excerpt: FIG. 3 is a schematic (upper left panel) showing an approach for creating a triple transgenic mouse line that expresses the Cre recombinase throughout the pancreas, a mutated K-ras oncogene polypeptide, and a human MUC1 polypeptide. This mouse develops pancreatic adenocarcinoma, cells of which were used to generate the primary tumor cell line KCM (lower panel). The KCM cell line was used to test the binding of an exemplary antibody of the presently disclosed subject matter (denoted in the Figure as “TAB” and in the instant disclosure as “TAB-004”) either alone or conjugated to CpG oligodeoxynucleotides (CpG ODN).
as §1

The subject of a further data set is KCM tumor. Briefly: in vivo anti-tumor activity against established KCM tumor. Details: species or system mouse. As for the experimental part: FIG. 5A is a line graph showing the measured tumor volumes (in mm measured by digital calipers) in mice treated with phosphate-buffered saline (PBS) alone (negative control; filled squares), CpG ODN alone (X's), the unconjugated TAB-004 antibody (open circles), or the TAB-004-CpG ODN conjugate (filled circles). FIG. 5B is a bar graph showing the changes in tumor volumes in mice at 19 and 27 days after the final treatment was administered. […] PBS alone (negative control; white bars); CpG ODN alone (hatched bars); unconjugated TAB-004 antibody (black bars); TAB-004-CpG ODN conjugate (cross-hatched bars). […] The treatment groups and the schedule and dose were as illustrated in FIGS. 5A and 5B. Briefly, 3×10^6 KCM tumor cells were administered subcutaneously into the flank region of mice (n=10 mice) at day 0. At days 4, 10, and 16, 50 μg of a TAB-004-CpG ODN conjugate were administered intratumorally (without adjuvant) to each mouse. The same amounts of antibody were administered to an antibody alone group (unconjugated TAB-004) for comparison. Mice were sacrificed at day 20 and tumors recovered.

The nature of data set [1]: physical properties of MSN materials (DLS, zeta-potential, TGA, TEM). In kind it is physicochemical. An excerpt:
The MSN conjugates were characterized by dynamic light scattering (DLS), thermogravimetric analysis (TGA), and transmission electron microscopy (TEM). […] DLS results indicated slight aggregation. The surface charges were as expected during the different synthesis steps, with the final TAB-004-MSN neutral surface charge indicating successful functionalization of MSN. The PEG linker was quantified by TGA to be about 6-7% by weight.

The target of a further data set is T1, KCM lysate (Homo sapiens, UniProt P15941).
T1 construct: expressed in transfected cells; host or cells: KCM, a primary mouse pancreatic adenocarcinoma line from P48-Cre x LSL-Kras G12D x human MUC1.Tg mice; whole-cell lysate at 10 ug/mL
Kind of data set: sandwich ELISA of humanized TAB004 antibodies on KCM lysate. It is filed as binding, mouse. To be noted: compared with chimeric parental antibody. The procedure: Antigen binding (KCM lysate) to the 9 humanized antibody combinations and the chimeric parental antibody were evaluated by sandwich ELISA. For this, ELISA plates were coated with hybridoma antibody (1 μg/mL) overnight at 4° C. in the dark and then blocked with 2% BSA for 2 hours at room temperature to reduce non-specific binding. KCM lysate (10 μg/mL) was then added and incubated for 2 hours at room temperature. Antibodies were diluted in 5-fold increments for a total of seven data points and were added to the ELISA wells for 2 hours at room temperature. The plate was washed with PBS three times, and then incubated with HRP conjugated goat anti-human IgG antibody for 2 hours. The plate was washed three times with PBS. TMB, the HRP substrate, was added to each well for color development for 5 minutes at room temperature. Equal amount of 1N HC1 stop solution was added to each well to terminate the reaction.

T1 sequence (P15941 24-1255): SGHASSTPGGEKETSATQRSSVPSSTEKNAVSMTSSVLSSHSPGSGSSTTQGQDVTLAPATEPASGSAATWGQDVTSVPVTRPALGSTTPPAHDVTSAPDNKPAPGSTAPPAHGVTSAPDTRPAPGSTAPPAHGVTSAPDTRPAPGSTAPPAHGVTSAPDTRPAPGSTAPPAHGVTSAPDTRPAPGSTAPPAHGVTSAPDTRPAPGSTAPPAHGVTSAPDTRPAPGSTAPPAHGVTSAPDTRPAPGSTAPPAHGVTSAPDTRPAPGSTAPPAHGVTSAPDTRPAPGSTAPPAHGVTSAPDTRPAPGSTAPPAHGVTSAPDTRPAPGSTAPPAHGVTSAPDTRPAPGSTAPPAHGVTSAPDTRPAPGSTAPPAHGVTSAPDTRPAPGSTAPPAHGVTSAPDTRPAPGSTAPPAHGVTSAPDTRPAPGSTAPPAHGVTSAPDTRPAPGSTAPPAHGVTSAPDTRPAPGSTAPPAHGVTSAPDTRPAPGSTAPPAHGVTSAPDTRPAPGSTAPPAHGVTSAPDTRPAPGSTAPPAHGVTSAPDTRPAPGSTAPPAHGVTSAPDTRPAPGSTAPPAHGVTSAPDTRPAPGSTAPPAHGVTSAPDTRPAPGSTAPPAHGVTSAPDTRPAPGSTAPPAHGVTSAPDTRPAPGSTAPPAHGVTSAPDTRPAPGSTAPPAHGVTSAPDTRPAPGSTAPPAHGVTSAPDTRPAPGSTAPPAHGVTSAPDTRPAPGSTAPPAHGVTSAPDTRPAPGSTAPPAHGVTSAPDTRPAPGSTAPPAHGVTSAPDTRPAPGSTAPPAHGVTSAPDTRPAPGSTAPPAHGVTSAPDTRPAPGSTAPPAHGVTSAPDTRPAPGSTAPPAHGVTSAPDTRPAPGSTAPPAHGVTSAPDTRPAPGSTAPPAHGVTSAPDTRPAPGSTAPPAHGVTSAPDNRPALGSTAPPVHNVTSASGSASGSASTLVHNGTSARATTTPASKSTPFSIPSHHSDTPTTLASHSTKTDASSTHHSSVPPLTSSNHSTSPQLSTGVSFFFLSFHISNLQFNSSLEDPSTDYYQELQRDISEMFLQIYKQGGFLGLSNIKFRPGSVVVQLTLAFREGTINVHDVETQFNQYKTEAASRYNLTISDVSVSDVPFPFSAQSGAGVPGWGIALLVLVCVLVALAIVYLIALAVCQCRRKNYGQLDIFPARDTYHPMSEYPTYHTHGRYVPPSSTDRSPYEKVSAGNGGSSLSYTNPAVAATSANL

B1: TAB-004-CpG ODN conjugate (conjugate)
VH: EVQLQQSGGERATPGASVKMSCKTSGYTFTNYWMHWVKQRPGQGLEWIGYINPSSGYTQYNQKFKDKATLTADKSSSTAYIQLSSLTSEDSAVYYCSTYYGDYLFPYWGQGTLVTVSA
VL: DVLMTQTPLSLPVSLGDQASISCRSSQDIVYGNGNTYLEWYLQKPGQSPKLLIYKVSNRFSGVPDRFSGSGSGTDFTLKISRVEAEDLGVYYCFQGSHVPYTFGGGTKLEIKR
Regarding B1, the “specific lysis of tumor cells by NK cells” value with KCM tumor cells is “further enhanced specific lysis of tumor cells”. Also, the “binding to KCM cell line” value in the data set on KCM pancreatic cell line is “bound to the KCM pancreatic cell line with equal affinity”. The “growth of established tumor” value with KCM tumor (50 μg intratumorally at days 4, 10, and 16) is recorded as “completely stopped the growth of an established tumor leading to complete eradication”. Also, the “tumor volumes at 19 and 27 days post-treatment” value in the data set on KCM tumor (compared to control mice) was “had not increased”. The “tumor regrowth after cessation of treatment” value in the data set with KCM tumor (mouse, in vivo) was “did not grow back the tumors”.

B2: TAB-004-MSN (conjugate)
VH: EVQLQQSGGERATPGASVKMSCKTSGYTFTNYWMHWVKQRPGQGLEWIGYINPSSGYTQYNQKFKDKATLTADKSSSTAYIQLSSLTSEDSAVYYCSTYYGDYLFPYWGQGTLVTVSA
VL: DVLMTQTPLSLPVSLGDQASISCRSSQDIVYGNGNTYLEWYLQKPGQSPKLLIYKVSNRFSGVPDRFSGSGSGTDFTLKISRVEAEDLGVYYCFQGSHVPYTFGGGTKLEIKR
In turn, B2 came in with a PDI in data set [1] of 0.35. Also, in data set [1] (determined in 1 mM PBS, pH 7.4), the “Size (nm)” value turned out to be 342.0 nm and the “Zeta-potential (mV)” value is on record as −5.6 ± 0.8 mV.

B3: Humanized HC3 + LC2: heavy chain H6247, light chain L6246 (antibody)
heavy: EVQLVQSGAEVKKPGASVKVSCKASGYTFTNYWMHWVRQAPGQGLEWMGYINPSSGYTQYNQKFQGWVTMTADTSISTAYMELSRLRSDDTAVYYCSTYYGDYLFPYWGQGTLVTVSSASTKGPSVFPLAPCSRSTSESTAALGCLVKDYFPEPVTVSWNSGALTSGVHTFPAVLQSSGLYSLSSVVTVPSSNFGTQTYTCNVDHKPSNTKVDKTVERKCCVECPPCPAPPVAGPSVFLFPPKPKDTLMISRTPEVTCVVVDVSHEDPEVQFNWYVDGVEVHNAKTKPREEQFNSTFRVVSVLTVVHQDWLNGKEYKCKVSNKGLPAPIEKTISKTKGQPREPQVYTLPPSREEMTKNQVSLTCLVKGFYPSDIAVEWESNGQPENNYKTTPPMLDSDGSFFLYSKLTVDKSRWQQGNVFSCSVMHEALHNHYTQKSLSLSPG
light: DVVMTQSPLSLPVTLGQPASISCRSSQDIVYGNGNTYLEWYQQRPGQSPRLLIYKVSNRFSGVPDRFSGSGSGTDFTLKISRVEAEDVGVYYCFQGSHVPYTFGQGTKLEIKRTVAAPSVFIFPPSDEQLKSGTASVVCLLNNFYPREAKVQWKVDNALQSGNSQESVTEQDSKDSTYSLSSTLTLSKADYEKHKVYACEVTHQGLSSPVTKSFNRGEC
For B3, the “binding by ELISA” value with KCM lysate is on record as “retained binding similar to the chimeric parental antibody”.

B4: Humanized HC3 + LC3: heavy chain H6247, light chain L6247 (antibody)
heavy: EVQLVQSGAEVKKPGASVKVSCKASGYTFTNYWMHWVRQAPGQGLEWMGYINPSSGYTQYNQKFQGWVTMTADTSISTAYMELSRLRSDDTAVYYCSTYYGDYLFPYWGQGTLVTVSSASTKGPSVFPLAPCSRSTSESTAALGCLVKDYFPEPVTVSWNSGALTSGVHTFPAVLQSSGLYSLSSVVTVPSSNFGTQTYTCNVDHKPSNTKVDKTVERKCCVECPPCPAPPVAGPSVFLFPPKPKDTLMISRTPEVTCVVVDVSHEDPEVQFNWYVDGVEVHNAKTKPREEQFNSTFRVVSVLTVVHQDWLNGKEYKCKVSNKGLPAPIEKTISKTKGQPREPQVYTLPPSREEMTKNQVSLTCLVKGFYPSDIAVEWESNGQPENNYKTTPPMLDSDGSFFLYSKLTVDKSRWQQGNVFSCSVMHEALHNHYTQKSLSLSPG
light: DIVLTQSPLSLPVTLGQPASISCRSSQDIVYGNGNTYLEWYQQRPGQSPRLLIYKVSNRFSGVPDSFSGSGSGTDFTLTISRVEAEDVGIYYCFQGSHVPYTFGEGTKLEIKRTVAAPSVFIFPPSDEQLKSGTASVVCLLNNFYPREAKVQWKVDNALQSGNSQESVTEQDSKDSTYSLSSTLTLSKADYEKHKVYACEVTHQGLSSPVTKSFNRGEC
On to B4, for which the “binding by ELISA” value in the data set with KCM lysate is on record as “retained binding similar to the chimeric parental antibody”.
